For orientation: Kd means the constant that tells how readily two partners part at equilibrium.

The source of these data is article PMC3391102 (The Journal of Biological Chemistry, 2012).

In the test the target is Full-length NOD2 (purified recombinant, tags removed) (UniProt Q9HC29 1-1040). Briefly: SPR.
Sequence of Full-length NOD2 (purified recombinant, tags removed) (Q9HC29 whole entry): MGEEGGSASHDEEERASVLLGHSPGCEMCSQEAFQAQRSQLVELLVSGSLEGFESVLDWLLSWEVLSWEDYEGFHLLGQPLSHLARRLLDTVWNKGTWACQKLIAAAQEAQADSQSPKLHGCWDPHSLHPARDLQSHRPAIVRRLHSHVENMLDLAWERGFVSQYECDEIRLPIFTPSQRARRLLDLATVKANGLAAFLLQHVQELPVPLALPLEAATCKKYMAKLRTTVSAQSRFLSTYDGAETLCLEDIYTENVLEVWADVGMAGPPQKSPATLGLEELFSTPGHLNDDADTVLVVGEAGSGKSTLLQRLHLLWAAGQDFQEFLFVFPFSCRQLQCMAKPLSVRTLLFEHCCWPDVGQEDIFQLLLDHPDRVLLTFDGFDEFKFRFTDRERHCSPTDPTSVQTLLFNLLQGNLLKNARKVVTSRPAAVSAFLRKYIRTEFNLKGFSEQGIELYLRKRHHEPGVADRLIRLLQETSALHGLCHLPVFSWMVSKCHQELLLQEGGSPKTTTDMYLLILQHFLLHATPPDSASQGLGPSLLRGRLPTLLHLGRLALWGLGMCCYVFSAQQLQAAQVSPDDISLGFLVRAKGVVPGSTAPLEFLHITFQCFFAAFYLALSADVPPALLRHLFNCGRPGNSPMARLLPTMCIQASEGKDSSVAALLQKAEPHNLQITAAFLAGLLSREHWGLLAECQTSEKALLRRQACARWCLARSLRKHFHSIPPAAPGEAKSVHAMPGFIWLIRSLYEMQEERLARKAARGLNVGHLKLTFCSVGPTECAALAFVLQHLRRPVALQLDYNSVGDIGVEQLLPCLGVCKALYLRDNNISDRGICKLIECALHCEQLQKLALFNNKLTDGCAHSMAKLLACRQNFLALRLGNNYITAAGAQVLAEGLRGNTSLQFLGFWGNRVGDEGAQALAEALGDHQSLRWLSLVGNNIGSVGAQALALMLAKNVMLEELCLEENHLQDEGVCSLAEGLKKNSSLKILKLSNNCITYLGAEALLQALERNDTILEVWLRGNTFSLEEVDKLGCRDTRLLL

B1: NOD2 CARDs (residues Met28-Arg227) (domain or fragment)
chain: MCSQEAFQAQRSQLVELLVSGSLEGFESVLDWLLSWEVLSWEDYEGFHLLGQPLSHLARRLLDTVWNKGTWACQKLIAAAQEAQADSQSPKLHGCWDPHSLHPARDLQSHRPAIVRRLHSHVENMLDLAWERGFVSQYECDEIRLPIFTPSQRARRLLDLATVKANGLAAFLLQHVQELPVPLALPLEAATCKKYMAKLR
For B1, the Kd turned out to be 12.4 ± 0.58 µM.
